Patent US20250186614A1, “COMPACT DRUG RESPONSIVE DOMAINS FOR REGULATION OF FUNCTION/ABUNDANCE AND DELIVERY OF POLYPEPTIDE PAYLOADS” (OBSIDIAN THERAPEUTICS, INC., priority 2022, published 2025)
Where a chain is given by its changes, count along the chain named. In names and notes the source's numbering stands.

B1: FKBP-216 (protein)
chain: HCPIKSRKGDVLHAHYTGKLYDGTEFDSSLPRNQPFVFSLGTGEVIKGWDQGLLGMCEGEWRKLVIPSELGYGERGWPPKIPGGATLVFEVELLYIER
modifications: Description of sequence: Construct Name: FKBP-216; Mutation(s): Q72R Q84E A117W DRD M54A E61Y K101W K135Y
B2: FKBP-231 (protein)
chain: B1 chain with A14M, Y21E, G23M, V45R, W61K, Y95K
modifications: Description of sequence: Construct Name: FKBP-231; Mutation(s): Q72R Q84E A117W V85R DRD G63M
B3: FKBP-237 (protein)
chain: B1 chain with A14M, Y21E, V45R, W61K, G73N, Y95K
modifications: Description of sequence: Construct Name: FKBP-237; Mutation(s): Q72R Q84E A117W V85R DRD G113N
B4: FKBP-222 (protein)
chain: B1 chain with P3W, A14M, Y21E, T24R, W61K, Y95K
modifications: Description of sequence: Construct Name: FKBP-222; Mutation(s): Q72R Q84E A117W DRD P4W T25R
B5: FKBP-221 (protein)
chain: B1 chain with Y21E, T24G, V45R, W61K, Y95K
modifications: Description of sequence: Construct Name: FKBP-221; Mutation(s): Q72R Q84E A117W V85R DRD M54A T25G
B6: FKBP-230: FKBP13 DRD-AcGFP construct of Table 10 (protein)
chain: B1 chain with A14M, Y21E, G23M, W61K, Y95K
modifications: Description of sequence: Construct Name: FKBP-230; Mutation(s): Q72R Q84E A117W DRD G63M
B7: FKBP-236 (protein)
chain: B1 chain with A14M, Y21E, W61K, G73N, Y95K
modifications: Description of sequence: Construct Name: FKBP-236; Mutation(s): Q72R Q84E A117W DRD G113N
B8: FKBP-220: FKBP13 DRD-AcGFP construct of Table 10 (protein)
chain: B1 chain with A14M, Y21E, T24G, V45R, W61K, Y95K
modifications: Description of sequence: Construct Name: FKBP-220; Mutation(s): Q72R Q84E A117W V85R DRD T25G
B9: FKBP-229: FKBP13 DRD-AcGFP construct of Table 10 (protein)
chain: B1 chain with Y21E, V45R, W61K, Y95K, E97R
modifications: Description of sequence: Construct Name: FKBP-229; Mutation(s): Q72R Q84E A117W V85R DRD E137R M54A
B10: FKBP-165 (protein)
chain: B1 chain with Y21E, V45R, W61K, P79V, Y95K
modifications: Description of sequence: Construct Name: FKBP-165; Mutation(s): Q72R Q84E A117W DRD M54A P119V V85R
B11: FKBP-234 (protein)
chain: B1 chain with A14M, Y21E, V45R, D50T, W61K, Y95K
modifications: Description of sequence: Construct Name: FKBP-234; Mutation(s): Q72R Q84E A117W V85R DRD D90T
B12: FKBP-217 (protein)
chain: B1 chain with V45R
modifications: Description of sequence: Construct Name: FKBP-217; Mutation(s): Q72R Q84E A117W V85R DRD M54A E61Y K101W K135Y
B13: FKBP-164 (protein)
chain: B1 chain with Y21E, V45R, W61K, P78V, Y95K
modifications: Description of sequence: Construct Name: FKBP-164; Mutation(s): Q72R Q84E A117W DRD M54A P118V V85R
B14: FKBP-163 (protein)
chain: B1 chain with Y21E, V45R, M56V, W61K, Y95K
modifications: Description of sequence: Construct Name: FKBP-163; Mutation(s): Q72R Q84E A117W DRD M54A M96V V85R
B15: FKBP-224 (protein)
chain: B1 chain with P3R, A14M, Y21E, W61K, Y95K
modifications: Description of sequence: Construct Name: FKBP-224; Mutation(s): Q72R Q84E A117W DRD P43R
B16: FKBP-225 (protein)
chain: B1 chain with P3R, A14M, Y21E, V45R, W61K, Y95K
modifications: Description of sequence: Construct Name: FKBP-225; Mutation(s): Q72R Q84E A117W V85R DRD P43R
B17: FKBP-235 (protein)
chain: B1 chain with Y21E, V45R, D50T, W61K, Y95K
modifications: Description of sequence: Construct Name: FKBP-235; Mutation(s): Q72R Q84E A117W V85R DRD D90T M54A
B18: FKBP-233: FKBP13 DRD-AcGFP construct of Table 10 (protein)
chain: B1 chain with A14M, Y21E, D50T, W61K, Y95K
modifications: Description of sequence: Construct Name: FKBP-233; Mutation(s): Q72R Q84E A117W DRD D90T
B19: FKBP-223: FKBP13 DRD-AcGFP construct of Table 10 (protein)
chain: B1 chain with P3W, Y21E, T24R, V45R, W61K, Y95K
modifications: Description of sequence: Construct Name: FKBP-223; Mutation(s): Q72R Q84E A117W V85R DRD M54A P4W T25R
B20: FKBP-227 (protein)
chain: B1 chain with A14M, Y21E, W61K, Y95K, E97R
modifications: Description of sequence: Construct Name: FKBP-227; Mutation(s): Q72R Q84E A117W DRD E137R
B21: FKBP-226: FKBP13 DRD-AcGFP construct of Table 10 (protein)
chain: B1 chain with P3R, Y21E, V45R, W61K, Y95K
modifications: Description of sequence: Construct Name: FKBP-226; Mutation(s): Q72R Q84E A117W V85R DRD P43R M54A
B22: FKBP-239 (protein)
chain: B1 chain with A14M, W61K, Y95K
modifications: Description of sequence: Construct Name: FKBP-239; Mutation(s): Q72R Q84E A117W DRD E61Y
B23: FKBP-238 (protein)
chain: B1 chain with Y21E, V45R, W61K, G73N, Y95K
modifications: Description of sequence: Construct Name: FKBP-238; Mutation(s): Q72R Q84E A117W V85R DRD G113N M54A
B24: FKBP-232 (protein)
chain: B1 chain with Y21E, G23M, V45R, W61K, Y95K
modifications: Description of sequence: Construct Name: FKBP-232; Mutation(s): Q72R Q84E A117W V85R DRD G63M M54A
B25: FKBP-218 (protein)
chain: B1 chain with Y21G, W61G, Y95E
modifications: Description of sequence: Construct Name: FKBP-218; Mutation(s): Q72R Q84E A117W DRD M54A E61G K101G K135E
B26: FKBP-219 (protein)
chain: B1 chain with Y21G, V45R, W61G, Y95E
modifications: Description of sequence: Construct Name: FKBP-219; Mutation(s): Q72R Q84E A117W V85R DRD M54A E61G K101G K135E

Test: Example 4: dose response of FKBP constructs 160-255, Ec50, Ec90 and fold change (raw and normalized to mCherry)
Format: cell-based
Details: FKBP constructs 160-255; not normalized; read-out: EC90
Experimental: Additional experiments were performed for constructs FKBP-160-292.

Molecule	EC90
B1	14.1 µM
B2	0.396 µM
B3	0.55 µM
B4	0.612 µM
B5	0.495 µM
B6	0.997 µM
B7	1.81 µM
B8	0.156 µM
B9	0.484 µM
B10	0.97 µM
B11	8.76 µM
B12	16.1 µM
B13	0.58 µM
B14	0.756 µM
B15	0.0786 µM
B16	0.0254 µM
B17	9.97 µM
B18	0.272 µM
B19	0.674 µM
B20	0.293 µM
B21	0.0446 µM
B22	0.223 µM
B23	0.847 µM
B24	0.938 µM

Same assay, conditions: fold change during initial analysis

Molecule	FC (fold change)
B1	27.6
B2	39.9
B3	24.1
B4	40.6
B5	41.8
B6	49.0
B7	39.1
B8	34.2
B9	54.0
B10	47.6
B11	23.5
B12	36.8
B25	4.46
B13	42.7
B14	29.4
B15	5.2
B16	20.6
B17	23.5
B18	47.2
B19	52.5
B20	29.0
B21	31.5
B22	31.1
B26	5.4
B23	26.8
B24	35.0

Same assay, conditions: normalized to mCherry; read-out: EC90 (Norm)

Molecule	EC90
B1	14.5 µM
B2	0.399 µM
B3	0.484 µM
B4	0.602 µM
B5	0.567 µM
B6	0.89 µM
B7	1.97 µM
B8	0.165 µM
B9	0.455 µM
B10	0.984 µM
B11	12.1 µM
B12	17.5 µM
B13	0.621 µM
B14	1.01 µM
B15	0.0887 µM
B16	0.026 µM
B17	11.1 µM
B18	0.335 µM
B19	0.713 µM
B20	0.278 µM
B21	0.047 µM
B22	0.243 µM
B23	0.863 µM
B24	1.09 µM
